Reference: patent publication US6613506B1, “Compositions and methods for inhibiting human immunodeficiency virus infection by down-regulating human cellular genes” (Subsidiary No. 3, Inc., priority 2000, dated 2003)

What was measured:
[1] = system: latent HIV provirus in OM10.1 cells; assay: Induction of latent HIV provirus by TNF-α in OM10.1 cells (CD4 retention, p24); type: cell-based, HIV-1
Experimental: In order to determine p24 expression in HIV-infected cells, the cells were first washed twice with Assay Buffer. About 10^6 cells were suspended in 100 μL Assay Buffer, mixed with 2 mL of Ortho PermeaFix Solution (available from Ortho Diagnostics), and incubated for 40 min. at room temperature. After centrifugation at 1200 rpm for 4 min. at 4EC, the cells were resuspended in 2 mL Wash Buffer (500 mL PBS, 25 mL fetal bovine serum, 1.5% bovine serum albumin and 0.0055% EDTA) for 10 min. at room temperature. After centrifugation, the cells were resuspended in 50 ΦL Wash Buffer and mixed with 1:500 dilution of an IgG2a antibody for 20 min. at 4EC, followed by incubation with 5-10 ΦL of anti-p24 antibody (KC57-FITC, available from Coulter) for 30 min. at 4EC. The cells were then washed twice with Wash Buffer and analyzed by flow cytometry.
(§1) One strategy selected for GSEs which suppressed productive infection of cells by HIV. The second strategy selected for GSEs which suppressed induction of the latent provirus in OM10.1 cells. When OM10.1 cells were treated with TNF-α and stained with an antibody specific for the cell surface molecule CD4, a rapid loss of CD4 expression was observed (FIG. 1). In contrast, the vast majority of the uninduced OM10.1 cells retained CD4 expression. It is believed that activation of the latent virus in OM10.1 cells by TNF-α leads to the production of viral protein gp120, which binds to cytoplasmic CD4, thereby preventing its translocation to the cell surface. A diminution of CD4^+ OM10.1 cells also correlates with an increased production of viral protein p24 in the cells following TNF-α induction.
OM10.1 cells were cultured in RPMI 1640 glucose-free media prior to and during incubation with NADH dehydrogenase inhibitors and TNF-á induction. The inhibitors were added to the cells followed by TNF-á induction 1-2 hours later. The expression of CD4 by the cells was assessed by anti-CD4 antibody staining and flow cytometry after 24 hour incubation at 37° C.

[2] = system: HIV; assay: Selection of GSEs from RFE libraries using OM10.1 and CEM-ss cells (strategy not stated per GSE); type: cell-based, HIV-1; details: GSEs matching NADH dehydrogenase subunit genes
Experimental: (§2) The libraries prepared from HL-60 cells according to the method of Section A of this Example, were transfected into the packaging cell line, PA317 (ATCC CRL #9078), and converted into retrovirus for infection of OM10.1 cells. Libraries in pLNCX vector were co-cultured and selected with G418. Libraries in pLNGFRM vector were transduced by spinoculation (centrifugation of target cells at 1200×g for 90 min. in the presence of filtered retroviral supernatant; Dunn et al., 1999, Gene Therapy 6: 133-137) and selected by FACS sorting of the NGFR^+ population. After selection, the OM10.1 cells harboring the entire RFE library were induced with 10 U/mL of TNF-α at 37EC, and 24 hours later, were stained with an antibody and sorted for CD4 expression. Genomic DNA from the CD4^+ cells was purified and used for PCR amplification of inserts with the vector-derived primers. The amplified mixture was digested with EcoRI and BamHI and cloned back into the retroviral vector. The selection was repeated for additional rounds.
Additionally, a normalized RFE library made from HeLa cells was transferred into CEM-ss cells and the neo resistant population was infected with TCID50 of 3000/10^6 cells of HIV-1IIIB. This RFE library was represented by 50×10^6 independent recombinant clones. Four and seven days after infection, a purified anti-CD4 monoclonal antibody, L77 (available from Becton Dickinson), was added at 5 Φg/mL to prevent syncytia formation. Syncytia formation is thought to be prevented by blocking the interaction between gp120 expressed on the surface of an infected cell and CD4 on the surface of an uninfected cell. […] At 10-12 days after infection, CD4^+, p24^− cell population representing uninfected cells were sorted. Genomic DNA from the CD4^+, p24^− cells was purified and used for PCR amplification of inserts with the vector-derived primers. The amplified mixture was digested with EcoRI and BamHI and cloned back into the retroviral vector. The selection was repeated for additional rounds.
as §1
GSEs derived from cDNAs representing expressed human cellular genes were identified and isolated from a RFE library made from HL-60 cells using HIV provirus activation in OM10.1 cells as a read-out. Following transfection of the entire library into a packaging cell line, retrovirus carrying the library was used to infect OM10.1 cells by co-cultivation or spinoculation, and NGFR selection was performed to ensure the retention of the viral vector. When the infected cells were treated with TNF-α a small number of residual CD4^+ cells were detected by an anti-CD4 antibody and sorted by FACS. The GSEs contained in these cells were recovered by PCR amplification and their nucleotide sequences determined.
A total of twenty GSEs were isolated by the two aforementioned selection strategies using OM10.1 and CEM-ss cells. […] CF-315 was further shown to protect uninfected human T cells from a productive HIV-1 infection (FIG. 2). In this experiment, the retroviral vector, pLNGFRM, containing the CF-315 nucleic acid molecule was transferred into CEM-ss cells followed by NGFR selection. Vector containing plasmid DNA (denoted LNGFRM) was used as negative control. […]

[3] = system: HIV-1SF2; assay: Protection of GSE-transduced CEM-ss cells from HIV-1SF2 infection (intracellular p24); type: cell-based; details: HIV-1SF2 at TCID50 of 1000, versus vector (LNGFRM) control
Description: FIG. 2 illustrates the percentage of intracellular p24^+ CEM-ss cells containing the CF-315 sequence (SEQ ID NO:1) after infection with HIV-1SF2 at a TCID50 of 1000. CEM-ss cells (10^6) containing the C-315 construct or control vector DNA (denoted as LNGFRM) were harvested on the indicated days post infection, stained with FITC-conjugated anti-p24 monoclonal antibody and analyzed by flow cytometry. Mock infected cells, -⋄-; LNGFRM vector-infected cells, -[…]-; and C-315 infected cells, -Δ-.
FIG. 3 illustrates the percentage of intracellular p24^+ CEM-ss cells containing various GSEs: CF-004 (SEQ ID NO:7), CF-025 (SEQ ID NO:5), CF-113 (SEQ ID NO:8) and CF-204 (SEQ ID NO:9) after infection with HIV-1SF2 at a TCID50 of 1000. Controls include mock-infected, vector (LNGFRM)-infected and HIV-infected CEM-ss cells.
FIG. 4 illustrates the percentage of intracellular p24^+ CEM-ss cells containing CF-001 (SEQ ID NO:10) after infection with HIV-1SF2 at a TCID50 of 1000. Controls include mock-infected and vector (LNGFRM)-infected cells. […]
In order to determine p24 expression in HIV-infected cells, the cells were first washed twice with Assay Buffer. […] The cells were then washed twice with Wash Buffer and analyzed by flow cytometry. […]

[4] = system: latent HIV-1 provirus in OM10.1 cells; assay: Selection of GSEs in OM10.1 cells (TNF-α induction of latent provirus, CD4+ sorting); type: cell-based
Experimental: as §2, with “The amplified mixture was digested with EcoRI and BamHI and cloned back into the retroviral vector. The selection was repeated for additional rounds.” left out
GSEs derived from cDNAs representing expressed human cellular genes were identified and isolated from a RFE library made from HL-60 cells using HIV provirus activation in OM10.1 cells as a read-out. […] When the infected cells were treated with TNF-α a small number of residual CD4^+ cells were detected by an anti-CD4 antibody and sorted by FACS. The GSEs contained in these cells were recovered by PCR amplification and their nucleotide sequences determined.

| Molecule | HIV-suppressive activity of the GSE and active orientation [2] | also measured |
| --- | --- | --- |
| CCC1(CCC(C)C)C(=O)NC(=O)NC1=O [amytal, Amytal] | – | inhibition of induction of latent HIV provirus (retention of CD4 expression) ([1]; TNF-α-induced OM10.1 cells, 24 hour incubation, FIG. 5 / FIG. 6): inhibited the induction of latent HIV provirus in OM10.1 cells in a dose-dependent manner; intracellular p24 levels ([1]; treated cells compared with untreated controls): suppressed intracellular p24 levels |
| CF-025: GSE, SEQ ID NO:5, antisense; NADH dehydrogenase ND2 subunit gene (nucleic acid, listed as Homo sapiens) antisense: GAAGAAGCAGGCCGGATGTCAGAGGGGTGCCTTGGGTAACCTCTGGGACTCAGAAGTGAAAGGGGGCTATTCCTAGTTTTATTGCTATAGCCATTATGATTATTAATGATGAGTAT | suppresses HIV infection as an antisense molecule | – |
| CF-101: GSE, SEQ ID NO:3, sense; NADH dehydrogenase ND2 subunit gene (nucleic acid, listed as Homo sapiens) sense: CATCAGCCCTTCTTAACATCTACTTCTACCTACGCCTAATCTACTCCACCTCAATCACACTACTCCCCATATCTAACAACGTAAAAATAAAATGACAGTTTGAGCATACAAAACCCACCCCATTCCTCCCCACACTCATCGCC | exhibits its HIV-suppressive activities in the sense orientation | – |
| CF-319: GSE, SEQ ID NO:2, sense; NADH dehydrogenase ND6 subunit gene (nucleic acid, listed as Homo sapiens) sense: GATCCTCCCGAATCAACCCTGACCCCTCTCCTTCATAAATTATTCAGCTTCCTACACTATTAAAGTTTACCACAACCACCACGCCATCATACTCCTTCAC | suppresses HIV replication in the sense orientation | – |
| CF-315: GSE, SEQ ID NO:1, antisense; NADH dehydrogenase ND6 subunit gene (nucleic acid, listed as Homo sapiens) antisense: AGATCCTATTGGTGCGTGGGCTTTGTATGATTATGGGCGTAGATTAGTAGTAGTTACTGGTTGAACATTGTTTGTTGGTGTATATATTGTAATTGGGATTGCTCGGGGGAATAGGTTATGTGATTAGGAGTAGGG | suppresses HIV replication as an antisense molecule | inhibition of productive HIV infection (intracellular p24+ cells) [3]: inhibited infection of human T cells by HIV-1SF2 |
| CF-128: GSE, SEQ ID NO:6, sense; NADH dehydrogenase ND4 subunit gene (nucleic acid, listed as Homo sapiens) sense: TCCTAGTCCTCACAATCATGGCAAGCCAGCGCCACTTATCCAGTGAACCACTATCACGAAAAAAACTCTACCTCTCTATACTAATCTCCCTACAAATCTCATTAATTATAATATTCACAACCACAGA | suppresses HIV infection in the sense orientation | – |
| CF-117: GSE, SEQ ID NO:4, antisense; NADH dehydrogenase ND6 subunit gene (nucleic acid, listed as Homo sapiens) antisense: GTGAAAGAGTATGATGGGGTGGTGGTTGTCGTAAACTTTAATAGTGTAGGAAGCTGAATAATTTATAAAGGAGAGGGGACAGGGTTGATTCGGGAGGATC | suppresses HIV activities as an antisense molecule | – |
| CF-061: GSE, SEQ ID NO:19; portion of an unknown human cellular gene (nucleic acid, listed as Homo sapiens) DNA: ACACACAGACACACAGACACAGAGAGACACACAGACACACACACAGAGATACACAGAGACACAGACACAGAAACACTCTGAGAGACACACACACAGAGACACACAGACACACAGACACAGAGAGACACACAGACACACACACACAGAGATACACAGAGACACAGACACAGAAA | – | selection of the GSE [4]: selected in OM10.1 cells |
